Target: in vitro translated, 35S-labeled PARP (full length human poly(ADP-ribose) polymerase), P09874
Sequence (P09874 whole entry, looked up): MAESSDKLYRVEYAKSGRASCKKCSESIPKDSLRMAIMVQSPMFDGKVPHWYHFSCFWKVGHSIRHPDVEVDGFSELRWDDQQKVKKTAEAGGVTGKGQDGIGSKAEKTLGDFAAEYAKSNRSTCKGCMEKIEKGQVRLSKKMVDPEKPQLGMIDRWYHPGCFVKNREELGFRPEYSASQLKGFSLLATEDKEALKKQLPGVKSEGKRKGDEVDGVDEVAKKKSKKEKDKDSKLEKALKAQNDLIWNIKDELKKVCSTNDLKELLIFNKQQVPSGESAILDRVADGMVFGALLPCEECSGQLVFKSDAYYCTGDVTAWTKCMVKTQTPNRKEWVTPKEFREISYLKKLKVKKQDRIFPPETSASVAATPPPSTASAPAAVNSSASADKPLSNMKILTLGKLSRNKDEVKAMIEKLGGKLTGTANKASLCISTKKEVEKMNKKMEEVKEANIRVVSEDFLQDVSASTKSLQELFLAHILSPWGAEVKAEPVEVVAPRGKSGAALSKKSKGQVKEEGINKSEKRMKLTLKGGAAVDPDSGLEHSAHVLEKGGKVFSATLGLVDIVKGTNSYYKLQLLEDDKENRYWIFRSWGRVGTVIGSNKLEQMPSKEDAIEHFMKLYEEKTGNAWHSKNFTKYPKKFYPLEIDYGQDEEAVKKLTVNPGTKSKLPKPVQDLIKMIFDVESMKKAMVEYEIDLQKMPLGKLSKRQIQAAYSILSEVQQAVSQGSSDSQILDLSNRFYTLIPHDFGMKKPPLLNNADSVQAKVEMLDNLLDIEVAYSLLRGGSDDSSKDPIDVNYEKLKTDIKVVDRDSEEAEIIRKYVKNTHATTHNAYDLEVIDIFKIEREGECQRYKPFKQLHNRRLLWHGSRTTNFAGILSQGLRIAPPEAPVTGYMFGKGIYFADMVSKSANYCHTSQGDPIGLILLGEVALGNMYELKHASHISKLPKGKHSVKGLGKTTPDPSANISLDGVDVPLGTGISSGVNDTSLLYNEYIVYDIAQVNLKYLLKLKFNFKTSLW

B1: CPP32 (endogenous, in HeLa cell S-100) (protein)
chain: MENTENSVDSKSIKNLEPKIIHGSESMDSGISLDNSYKMDYPEMGLCIIINNKNFHKSTGMTSRSGTDVDAANLRETFRNLKYEVRNKNDLTREEIVELMRDVSKEDHSKRSSFVCVLLSHGEEGIIFGTNGPVDLKKITNFFRGDRCRSLTGKPKLFIIQACRGTELDCGIETDSGVDDDMACHKIPVEADFLYAYSTAPGYYSWRNSKDGSWFIQSLCAMLKQYADKLEFMHILTRVNRKVATEFESFSFDATFHAKKQIPCIVSMLTKELYFYH
cleavage of 35S-labeled PARP (SDS-PAGE, autoradiography): The activated extracts readily cleaved PARP into 85 kDa and 24 kDa fragments
